Source: US20240189392A1
Positions of bridges follow the written chain, without caps; N, C: chain ends. Chains are numbered I, II in the order given. No end group written: not given here.

Molecular target: human RXFP2 (human), Q8WXD0
Experiment: cell-based or functional assay

human RXFP2 (human), Q8WXD0, sequence (Q8WXD0 whole entry): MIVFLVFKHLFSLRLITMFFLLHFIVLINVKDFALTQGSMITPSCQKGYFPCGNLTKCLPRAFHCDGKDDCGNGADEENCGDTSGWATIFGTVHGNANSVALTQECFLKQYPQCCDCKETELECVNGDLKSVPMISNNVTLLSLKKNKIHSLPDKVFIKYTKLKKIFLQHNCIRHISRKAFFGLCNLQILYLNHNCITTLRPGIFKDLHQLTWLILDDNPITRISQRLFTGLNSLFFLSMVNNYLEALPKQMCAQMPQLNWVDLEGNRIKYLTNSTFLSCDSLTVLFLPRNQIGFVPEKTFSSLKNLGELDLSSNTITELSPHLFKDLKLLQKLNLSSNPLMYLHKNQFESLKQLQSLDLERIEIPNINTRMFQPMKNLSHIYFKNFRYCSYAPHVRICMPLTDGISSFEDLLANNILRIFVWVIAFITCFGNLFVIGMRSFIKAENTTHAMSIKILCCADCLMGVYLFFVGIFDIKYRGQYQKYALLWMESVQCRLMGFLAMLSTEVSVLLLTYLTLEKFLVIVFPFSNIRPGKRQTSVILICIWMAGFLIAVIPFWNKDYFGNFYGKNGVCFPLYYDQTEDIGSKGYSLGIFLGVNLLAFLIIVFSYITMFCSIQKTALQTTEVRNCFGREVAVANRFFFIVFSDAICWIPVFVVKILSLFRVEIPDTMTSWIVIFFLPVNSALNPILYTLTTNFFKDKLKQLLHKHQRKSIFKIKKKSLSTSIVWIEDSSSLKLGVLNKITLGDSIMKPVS

B1: RLX-A-AQ1-20KPEG (ligand)
chain 1: XLYSALANKCCHVGCTKRSLARFC
chain 2: ASWMEEVIKLCGRELVRAQIAICGMSTWS
modifications: here or on the partner: pACF (para-acetylphenylalanine) at position 1 of the A chain, linked to a 20 kDA PEG via an oxime linkage
Maximal cAMP stimulation by RLX-A-AQ1-20KPEG compared to WT-RLX (percent difference), AVG, hRXFP2: 99% | Potency Ratio (RLX-A-AQ1-20KPEG/WT-RLX), cAMP assay, human RXFP2/CHO-K1 cells: 32 fold | RLX-A-AQ1-20KPEG Potency Ratio (hRXFP 1-1.0), cAMP assay: 54 | cAMP Assay EC50 (nM), human RXFP2/CHO-K1 cells: 174 nM

B2: wild-type relaxin (human relaxin 2) (ligand)
chain 1: QLYSALANKCCHVGCTKRSLARFC
chain 2: DSWMEEVIKLCGRELVRAQIAICGMSTWS
modifications: disulfide I:10-I:15, I:11-II:11, I:24-II:23
fold less potent than INSL3, cAMP assay, human RXFP2/CHO-K1 cells: 10 fold
